# Measurements from the RNAGym collection of RNA variant scans (doi:10.1073/pnas.2313332121).
# B1: TPR t1 (parent)
# chain: GACCAAUCUGCCCUCAGAGCUCGAGAACAUCUUCGGAUGCAGAGGAGGCAGGCUUCGGUGGCGCGAUAGCGCCAACGUCCUCAACCUCCAAUGCAUCCCACCACAUGAUGAUGCCUGAAGAGCCUUGGUUUUUUG
# Variants of: B1
# Test: polymerase ribozyme fitness, log enrichment relative to wild type (log ratio); higher = more active; in vitro selection for triplet polymerase activity
# Procedure, shortened: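 Fitness is a logarithmic measure of how a genotype enriched relative to the wild type, with replicate averages weighted by inverse variance. The logarithm uses base 2, and enrichment came from Illumina sequencing of input and output libraries. Those libraries were PCR-built, transcribed mutants of each subunit of a heterodimeric triplet polymerase ribozyme, passed through one triplicate in vitro selection round that included frozen incubation at −7 °C, gel excision of extended constructs and streptavidin-bead capture. Genotypes were kept only if they had ≥10 input reads and ≥1 read per output.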
row,Variant,polymerase ribozyme fitness (log ratio)
1,U9G G71U C88A C115A,-2.67
2,U9G A27C C98U,-4.04
3,G10U G45A U106A,-0.0856
4,G10U G25U C34A C99U G113C,-6.47
5,U9G C12G U33A G42A C72G G93A G110U U116A,-7.22
6,U9G G48C G120A U130A G135U,-0.622
7,U9C C12U C22G G45C C72G A100U,-4.47
8,G10C G42C,-2.24
9,U9G G10U U14A C97U,-0.883
10,U9G A41U U81C U96A,-2.65
11,U9G G17U G60C U96C C104U G117A,-3.16
12,U9G C72G G113A G120A,-1.17
13,U9C C53U G69C,-0.176
14,G10A U109A U133G,-7.59
15,G10U G39U G77C A100C,-2.58
16,G10U C13G C73U G122U,-0.626
17,G10U G47U A74G G113U C123G U126A,-3.52
18,U9G C11U C53U U81A,-0.54
19,G10U A37U G120C U129C,0.637
20,U9G C72G U87G,-0.102
21,U9G G48U G61U G135U,-1.68
22,G10A G45C C56G G63A,-4.08
23,U9G A18C G117A,0.733
24,U9G C102U G135U,-2.17

row,Variant,polymerase ribozyme fitness (log ratio)
1,U9C G19C C70U,-3.22
2,G10A C22G G57C,-2.92
3,U9C A43G C89U,-0.469
4,G10A C12U G36U C53A,-0.13
5,U9G G36C C56U C76U C85U A118U,-2.3
6,U9G G57A U78A A100C,-1.29
7,G10A C13G A27U C72U A105U,-3.22
8,G10U C101A,-1.56
9,G10A G63A,-0.758
10,U9C G39A A41U C73G G120U,-0.71
11,G10A A50G,0.0587
12,G10U G52U U96G,-0.544
13,U9G G117A,0.595
14,G10A G52A G60A C79A C115A U132A,-1.53
15,U9G C28U G61U C72G U87A G122A,-1.55
16,G10A A29G C62U G113A U130A,-3.56
17,G10A G47C G51C U59G U81C C115A,-5.77
18,U9C G19A U96A A121G U132A,-1.11
19,G10C G42A G63U A91C G113A G122U,-4.47
20,G10A C20G A41C G48A G69U A84G,-3.37
21,G10A G42A G44A C72U,-1.94
22,G10U A37U G52U C56U C73G U116G,-4.51
23,G10U C70U A83U A90G C115U,-2.59
24,G10C G52U C53A,-1.16

row,Variant,polymerase ribozyme fitness (log ratio)
1,G10U G93A C99U,-4.71
2,U9G C73U C82A A83C A118U G128A,-1.71
3,G10U G48C,-0.778
4,U9G G23U,-6.6
5,U9C C82A U109G C124U U131C,-3.57
6,G10A G44U U54C G63A C70A U130C,-4.01
7,U9G C28G A111C G122A,-4.22
8,G10U A95U G128A,-3.44
9,G10A A16C A50G C101A,-2.99
10,U9C G39A A41C C72G A84C C86A C99A A121U,-6.53
11,G10A C80U,-0.522
12,U9G C72G,-0.437
13,U9G A103U U126A G127C,-5.16
14,G10C U14G C70U A91C,-4.25
15,G10C A37U G63U U96A C124U U129G,-4.44
16,U9C C13U A27U A46C G52A G113A,-6.07
17,U9C A83C,0.121
18,U9C G52A C89A G117A,-1.63
19,U9G C13U C49G C82U,-0.776
20,U9G C34U U59A A103U,-5.76
21,U9G A46U G48U C76U C124U,-1.24
22,G10C C89G A121C,0.737
23,G10C G120U,-1.23
24,G10C A27U G39U,-3.03

row,Variant,polymerase ribozyme fitness (log ratio)
1,G10U A111U,-3.44
2,U9C U133G,0.11
3,G10A G63A U130G,-0.867
4,G10A C15U,-2.8
5,G10A U21G G52A G69C U78G C115G U133G,-7.23
6,U9G G10C C11A C15A A37G C49G C85U A95U C123U,-3.19
7,U9C U32C U109G,-6.53
8,G10U C101A U125G,-2.32
9,G10C C73A C101U U130C,-0.689
10,U9G U87C,-0.367
11,U9G U87G,0.583
12,U9G A105U G113A,-5.18
13,U9G G48A U81A C89A G93U C115G C123G,-6.43
14,U9G C20G G44C C72U C114G,-6.99
15,G10U G39C,-0.652
16,G10U U92G C94U U133A,-2.28
17,G10A C49A G93U U112G,-1.97
18,G10A G47C C89U C124G,-0.208
19,G10C G48C C102U,-2.77
20,G10U C11G G47C G58A C62G,-3.87
21,G10U C22U A46G U54G C56G G61A A74U U92A C114A U116A,-6.68
22,G10C C70G,-3.67
23,G10C U30C G71A G117A,-5.64
24,G10U U21G C64A A95G C123U U125A,-6.83

row,Variant,polymerase ribozyme fitness (log ratio)
1,G10A C73U U78A C79U C94A,-0.0725
2,G10A C70G U87A C123A,-4.27
3,U9G G63C C72A,-3.45
4,G10U C22G C56U C72U A90G C114U,-3.41
5,U9G G57U U96A U112A,0.146
6,U9C G52A C104U A121U,2.1
7,U9G C11G G45C,-5.66
8,U9C A41C G52A C98U U130G,-2.71
9,G10C C49A G71A,-2.07
10,U9G G17A C56U A83U C89A C101A,-4.6
11,U9C A43C A46G,-1.4
12,G10U G35A G117C,-6.56
13,G10U C20A C49U G65C C94A U109G,-7.47
14,U9C C62U C102U,-1.87
15,G10A C40A A111C,-1.11
16,G10C C13A G58A G71A C98U,-3.11
17,U9G G10U,0.261
18,U9G G10C,0.723
19,U9C A50U C94U,-2.36
20,U9C C12U A16G C49G,0.31
21,G10A G71A A83C U106A A108U,-1.78
22,U9G G51C,-3.27
23,G10A A41C G52A,-1.27
24,G10C A46C C101A C123G U130A,-1.67

row,Variant,polymerase ribozyme fitness (log ratio)
1,U9C C12G U55C A83G G93A C102U,-5.25
2,G10C A43U C62A C114U U116C U133G,-6.43
3,G10A C13U G61U,-0.325
4,G10A U81A,-0.546
5,G10C U78C,-1.63
6,U9G C70U,-0.679
7,G10A C97U C101U A105G U130G,-5.15
8,G10A G39U G42A C124A,-0.542
9,U9G C20A C22U C86U,-4.49
10,G10C G35A G69U U81G C82G C123A,-2.07
11,G10A A43U G57U U130C,-1.83
12,G10U C11G G60C A95G,-0.947
13,G10A A37G G47U U59A G117U G122U U125G,-5.7
14,U9G A83G G93A C102A C123U,-2.93
15,U9G C72U C94A G110A G113U A121G,-6.14
16,U9G G45A G93U C114A,-2.75
17,G10A,0.148
18,G10U,-0.124
19,G10C,-0.497
20,U9G C20A U131A,-1.99
21,G10U U14A,-1.65
22,G10U G17U G45A C85U C123G,-0.92
23,U9G A95C U130A,-0.961
24,G10U G35C,-5.02

row,Variant,polymerase ribozyme fitness (log ratio)
1,U9C U125A,0.386
2,G10A A37U G47C U112C U131A,-0.391
3,G10A G44U,-1.5
4,G10U A26U G45A,-2.84
5,U9G G57U,-0.376
6,G10A C53G G69U C88U G110U,-0.0648
7,U9C G47U C49U U129A,-3.07
8,G10U G42U G69U C115A,-1.2
9,U9G C99U C124A U131G,-3.14
10,U9G C40A C76U C114A,-2.63
11,G10U A43G G47A A74G,-3.06
12,G10A C20U G57U G113U,-2.28
13,U9C C49A C123U,1.45
14,G10U C53U A91U U92A C97U,-6.09
15,G10A C13A C49G A84C,-0.63
16,G10U C13G U78A C104U,0.299
17,G10C C13G,-0.638
18,G10U C53U G65A A91U C104G A121U,-7.6
19,G10U C11U G71U C79U,-0.361
20,G10A U109A,-5.39
21,G10U C56U,0.114
22,G10U U30C A37G C56U C73U,-4.17
23,G10C G77U A111U,-4.57
